Experimental data taken from US20220363770A1 (Amgen, published 2022).
Residue numbers refer to the chain shown, from its start. Each block holds one binder with its values, some of them ahead of it.

Key:
[1] = target: T1, human PAC1 receptor (human, UniProt P41586 24-468); test: cell-based or functional assay
T1 sequence: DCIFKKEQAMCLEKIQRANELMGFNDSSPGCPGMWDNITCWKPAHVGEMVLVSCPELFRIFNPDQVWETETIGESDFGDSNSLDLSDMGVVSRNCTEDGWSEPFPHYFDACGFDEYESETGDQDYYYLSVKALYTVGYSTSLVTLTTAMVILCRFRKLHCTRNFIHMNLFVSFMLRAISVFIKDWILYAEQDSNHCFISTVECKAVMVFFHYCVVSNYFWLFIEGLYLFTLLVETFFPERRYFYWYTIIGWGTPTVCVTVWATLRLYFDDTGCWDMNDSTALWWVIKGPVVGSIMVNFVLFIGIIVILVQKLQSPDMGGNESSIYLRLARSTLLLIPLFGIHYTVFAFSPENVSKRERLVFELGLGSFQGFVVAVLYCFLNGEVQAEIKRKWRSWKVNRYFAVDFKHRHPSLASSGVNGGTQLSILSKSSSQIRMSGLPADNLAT

[2] = target: human CGRP receptor (human, UniProt Q16602 23-461; O60894 27-148); test: cell-based or functional assay
human CGRP receptor, sequence (Q16602 23-461 limits assumed, chain 1 of 2): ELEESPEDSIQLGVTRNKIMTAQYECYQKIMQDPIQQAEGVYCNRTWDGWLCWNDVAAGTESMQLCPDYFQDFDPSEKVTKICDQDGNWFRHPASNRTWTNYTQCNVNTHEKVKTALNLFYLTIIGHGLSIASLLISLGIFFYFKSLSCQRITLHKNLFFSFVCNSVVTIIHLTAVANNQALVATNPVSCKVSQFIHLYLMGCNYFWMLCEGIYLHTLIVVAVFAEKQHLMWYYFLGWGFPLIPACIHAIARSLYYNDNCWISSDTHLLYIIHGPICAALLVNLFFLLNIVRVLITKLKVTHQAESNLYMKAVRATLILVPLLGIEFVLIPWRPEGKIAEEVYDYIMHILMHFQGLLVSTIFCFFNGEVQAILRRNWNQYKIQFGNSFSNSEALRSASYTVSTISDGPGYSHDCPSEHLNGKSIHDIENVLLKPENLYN
human CGRP receptor, sequence (O60894 27-148 limits assumed, chain 2 of 2): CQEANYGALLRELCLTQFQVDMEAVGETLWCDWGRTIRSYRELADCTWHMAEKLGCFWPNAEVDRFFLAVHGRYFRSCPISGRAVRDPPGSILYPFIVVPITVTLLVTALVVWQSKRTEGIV

Fold-improvement over 29G4v22 Ab [1]: 7.1 fold
IC50 [1]: 0.76 nM
Fold-improvement over 4E4 Ab [2]: 1.8 fold
IC50 [2]: 0.37 nM
B1: iPS:454851 (bispecific antibody, human IgG1, kappa, lambda, N297G)
light 1: QSVLTQPPSVSAAPGQKVTISCSGSRSNIGIKAVSWYQQLPGTAPKLLIYDNNKRPSGIPDRFSGSKSGTSATLGITGLQTGDEADYYCGTWDSRLSAVVFGGGTKLTVLGQPKAAPSVTLFPPSSEELQANKATLVCLISDFYPGAVTVAWKADSSPVKAGVETTTPSKQSNNKYAAKSYLSLTPEQWKSHRSYSCQVTHEGSTVEKTVAPTECS
heavy 1: QVQLVESGGGVVQPGRSLRLSCAASGFTFSSFGMHWVRQAPGKGLEWVAVISFDGSIKYSVDSVKGRFTISRDNSKNTLFLQMNSLRAEDTAVYYCARDRLNYYESSGYYHYKYYGMAVWGQGTTVTVSSASTKGPSVFPLAPSSKSTSGGTAALGCLVKDYFPEPVTVSWNSGALTSGVHTFPAVLQSSGLYSLESVVTVPSSSLGTQTYICNVNHKPSNTKVDKKVEPKSCDKTHTCPPCPAPELLGGPSVFLFPPKPKDTLMISRTPEVTCVVVDVSHEDPEVKFNWYVDGVEVHNAKTKPCEEQYGSTYRCVSVLTVLHQDWLNGKEYKCKVSNKALPAPIEKTISKAKGQPREPQVYTLPPSRKKMTKNQVSLTCLVKGFYPSDIAVEWESNGQPENNYKTTPPVLKSDGSFFLYSKLTVDKSRWQQGNVFSCSVMHEALHNHYTQKSLSLSPGK
light 2: EIVLTQSPATLSLSPGERATLSCRASKSVGWSLHWYQQKPGQAPRLLIKYASQSLSGIPARFSGSGSGTDFTLTISSLEPEDFAVYYCHQSSRLPFTFGPGTKVDIKRTVAAPSVFIFPPSDEQLKSGTASVVCLLNNFYPREAKVQWKVDNALQSGNSQESVTEQDSKDSTYSLESTLTLSKADYEKHKVYACEVTHQGLSSPVTKSFNRGEC
heavy 2: not shown

Fold-improvement over 29G4v22 Ab [1]: 11.2 fold
IC50 [1]: 0.57 nM
Fold-improvement over 4E4 Ab [2]: 0.5 fold
IC50 [2]: 1.36 nM
B2: iPS:454857 (bispecific antibody, human IgG1, kappa, lambda, N297G)
light 1: B1 light 1 with R26S, I31N, K32N, A33Y, A72T
heavy 1: B1 heavy 1 with E105R, S107F, H111G, K113H
light 2: B1 light 2 with W31Q
heavy 2: not shown

Fold-improvement over 29G4v22 Ab [1]: 3.3 fold
IC50 [1]: 1.74 nM
Fold-improvement over 4E4 Ab [2]: 0.2 fold
IC50 [2]: 2.3 nM
B3: iPS:454871 (bispecific antibody, human IgG1, kappa, lambda, N297G)
light 1: B1 light 1 with R26S, I31N, K32N, A33Y, A72T
heavy 1: B1 heavy 1 with E105R, S107F, H111G, K113H
light 2: B1 light 2 with W31Q
heavy 2: not shown

Fold-improvement over 29G4v22 Ab [1]: 4.5 fold
IC50 [1]: 1.4 nM
Fold-improvement over 4E4 Ab [2]: 0.4 fold
IC50 [2]: 1.5 nM
B4: iPS:454863 (bispecific antibody, human IgG1, kappa, lambda, N297G)
light 1: B1 light 1 with R26S, I31N, K32N, A33Y, A72T
heavy 1: B1 heavy 1 with E105R, S107F, H111G, K113H
light 2: B1 light 2 with W31Q
heavy 2: not shown

Fold-improvement over 29G4v22 Ab [1]: 3.3 fold
IC50 [1]: 1.91 nM
Fold-improvement over 4E4 Ab [2]: 0.4 fold
IC50 [2]: 1.5 nM
B5: iPS:454859 (bispecific antibody, human IgG1, kappa, lambda, N297G)
light 1: B1 light 1 with R26S, I31N, K32N, A33Y, A72T
heavy 1: B1 heavy 1 with E105R, S107F, H111G, K113H
light 2: B1 light 2 with S28A, G30W, W31H, S32N, R93M
heavy 2: not shown

Fold-improvement over 29G4v22 Ab [1]: 7.2 fold
IC50 [1]: 0.8 nM
Fold-improvement over 4E4 Ab [2]: 0.3 fold
IC50 [2]: 1.49 nM
B6: iPS:454877 (bispecific antibody, human IgG1, kappa, lambda, N297G)
light 1: B1 light 1 with R26S, I31N, K32N, A33Y, A72T
heavy 1: B1 heavy 1 with E105R, S107F, H111G, K113H
light 2: B1 light 2 with W31R
heavy 2: not shown

Fold-improvement over 29G4v22 Ab [1]: 9.3 fold
IC50 [1]: 0.69 nM
Fold-improvement over 4E4 Ab [2]: 0.3 fold
IC50 [2]: 1.86 nM
B7: iPS:454887 (bispecific antibody, human IgG1, kappa, lambda, N297G)
light 1: B1 light 1 with R26S, I31N, K32N, A33Y, A72T
heavy 1: B1 heavy 1 with E105R, S107F, H111G, K113H
light 2: B1 light 2 with W31R
heavy 2: not shown

Fold-improvement over 29G4v22 Ab [1]: 10.5 fold
IC50 [1]: 0.61 nM
Fold-improvement over 4E4 Ab [2]: 0.5 fold
IC50 [2]: 1.16 nM
B8: iPS:454885 (bispecific antibody, human IgG1, kappa, lambda, N297G)
light 1: B1 light 1 with R26S, I31N, K32N, A33Y, A72T
heavy 1: B1 heavy 1 with E105R, S107F, H111G, K113H
light 2: B1 light 2 with W31R
heavy 2: not shown

Fold-improvement over 29G4v22 Ab [1]: 5.8 fold
IC50 [1]: 1.1 nM
Fold-improvement over 4E4 Ab [2]: 0.4 fold
IC50 [2]: 1.65 nM
B9: iPS:454869 (bispecific antibody, human IgG1, kappa, lambda, N297G)
light 1: B1 light 1 with R26S, I31N, K32N, A33Y, A72T
heavy 1: B1 heavy 1 with E105R, S107F, H111G, K113H
light 2: B1 light 2 with W31Q
heavy 2: not shown

Fold-improvement over 29G4v22 Ab [1]: 4.9 fold
IC50 [1]: 1.31 nM
Fold-improvement over 4E4 Ab [2]: 0.5 fold
IC50 [2]: 1.1 nM
B10: iPS:454889 (bispecific antibody, human IgG1, kappa, lambda, N297G)
light 1: B1 light 1 with R26S, I31N, K32N, A33Y, A72T
heavy 1: B1 heavy 1 with E105R, S107F, H111G, K113H
light 2: B1 light 2 with W31R
heavy 2: not shown

Fold-improvement over 29G4v22 Ab [1]: 9 fold
IC50 [1]: 0.64 nM
Fold-improvement over 4E4 Ab [2]: 0.5 fold
IC50 [2]: 1.03 nM
B11: iPS:454883 (bispecific antibody, human IgG1, kappa, lambda, N297G)
light 1: B1 light 1 with R26S, I31N, K32N, A33Y, A72T
heavy 1: B1 heavy 1 with E105R, S107F, H111G, K113H
light 2: B1 light 2 with W31R
heavy 2: not shown

Fold-improvement over 29G4v22 Ab [1]: 6.5 fold
IC50 [1]: 0.98 nM
Fold-improvement over 4E4 Ab [2]: 0.4 fold
IC50 [2]: 1.55 nM
B12: iPS:454867 (bispecific antibody, human IgG1, kappa, lambda, N297G)
light 1: B1 light 1 with R26S, I31N, K32N, A33Y, A72T
heavy 1: B1 heavy 1 with E105R, S107F, H111G, K113H
light 2: B1 light 2
heavy 2: not shown

Fold-improvement over 29G4v22 Ab [1]: 3.9 fold
IC50 [1]: 1.63 nM
Fold-improvement over 4E4 Ab [2]: 0.4 fold
IC50 [2]: 1.59 nM
B13: iPS:454865 (bispecific antibody, human IgG1, kappa, lambda, N297G)
light 1: B1 light 1 with R26S, I31N, K32N, A33Y, A72T
heavy 1: B1 heavy 1 with E105R, S107F, H111G, K113H
light 2: B1 light 2 with W31Q
heavy 2: not shown

Fold-improvement over 29G4v22 Ab [1]: 7.4 fold
IC50 [1]: 0.87 nM
Fold-improvement over 4E4 Ab [2]: 0.4 fold
IC50 [2]: 1.35 nM
B14: iPS:454893 (bispecific antibody, human IgG1, kappa, lambda, N297G)
light 1: B1 light 1 with R26S, I31N, K32N, A33Y, A72T
heavy 1: B1 heavy 1 with E105R, S107F, H111G, K113H
light 2: B1 light 2 with K27Q, W31R
heavy 2: not shown

Fold-improvement over 29G4v22 Ab [1]: 1.9 fold
IC50 [1]: 3 nM
Fold-improvement over 4E4 Ab [2]: 0.3 fold
IC50 [2]: 1.7 nM
B15: iPS:454875 (bispecific antibody, human IgG1, kappa, lambda, N297G)
light 1: B1 light 1 with R26S, I31N, K32N, A33Y, A72T
heavy 1: B1 heavy 1 with E105R, S107F, H111G, K113H
light 2: EIVLTQSPATLSLSPGERATLSCRASRAVSNLHWYQQKPGQAPRLLIKYASQSLSGIPARFSGSGSGTDFTLTISSLEPEDFAVYYCHQSSYLPFTFGPGTKVDIKRTVAAPSVFIFPPSDEQLKSGTASVVCLLNNFYPREAKVQWKVDNALQSGNSQESVTEQDSKDSTYSLESTLTLSKADYEKHKVYACEVTHQGLSSPVTKSFNRGEC
heavy 2: not shown

Fold-improvement over 29G4v22 Ab [1]: 6.7 fold
IC50 [1]: 0.86 nM
Fold-improvement over 4E4 Ab [2]: 0.3 fold
IC50 [2]: 1.37 nM
B16: iPS:454879 (bispecific antibody, human IgG1, kappa, lambda, N297G)
light 1: B1 light 1 with R26S, I31N, K32N, A33Y, A72T
heavy 1: B1 heavy 1 with E105R, S107F, H111G, K113H
light 2: B1 light 2 with W31R
heavy 2: not shown

Fold-improvement over 29G4v22 Ab [1]: 5.8 fold
IC50 [1]: 0.93 nM
Fold-improvement over 4E4 Ab [2]: 1.4 fold
IC50 [2]: 0.47 nM
B17: iPS:454853 (bispecific antibody, human IgG1, kappa, lambda, N297G)
light 1: B1 light 1
heavy 1: B1 heavy 1
light 2: B1 light 2
heavy 2: not shown

Fold-improvement over 29G4v22 Ab [1]: 4.8 fold
IC50 [1]: 1.34 nM
Fold-improvement over 4E4 Ab [2]: 0.4 fold
IC50 [2]: 1.54 nM
B18: iPS:454861 (bispecific antibody, human IgG1, kappa, lambda, N297G)
light 1: B1 light 1 with R26S, I31N, K32N, A33Y, A72T
heavy 1: B1 heavy 1 with E105R, S107F, H111G, K113H
light 2: B1 light 2 with K27R, W31L, S32A, R93F
heavy 2: not shown

Fold-improvement over 29G4v22 Ab [1]: 9.5 fold
IC50 [1]: 0.68 nM
Fold-improvement over 4E4 Ab [2]: 0.6 fold
IC50 [2]: 0.9 nM
B19: iPS:454891 (bispecific antibody, human IgG1, kappa, lambda, N297G)
light 1: B1 light 1 with R26S, I31N, K32N, A33Y, A72T
heavy 1: B1 heavy 1 with E105R, S107F, H111G, K113H
light 2: B1 light 2 with K27Q, W31R
heavy 2: not shown

Fold-improvement over 29G4v22 Ab [1]: 6.6 fold
IC50 [1]: 0.81 nM
Fold-improvement over 4E4 Ab [2]: 1.4 fold
IC50 [2]: 0.46 nM
B20: iPS:454855 (bispecific antibody, human IgG1, kappa, lambda, N297G)
light 1: B1 light 1
heavy 1: B1 heavy 1
light 2: B1 light 2 with W31Y
heavy 2: not shown

Fold-improvement over 29G4v22 Ab [1]: 4.4 fold
IC50 [1]: 1.32 nM
Fold-improvement over 4E4 Ab [2]: 0.2 fold
IC50 [2]: 2.13 nM
B21: iPS:454873 (bispecific antibody, human IgG1, kappa, lambda, N297G)
light 1: B1 light 1 with R26S, I31N, K32N, A33Y, A72T
heavy 1: B1 heavy 1 with E105R, S107F, H111G, K113H
light 2: B1 light 2 with S28A, W31F, R93F
heavy 2: not shown

Fold-improvement over 29G4v22 Ab [1]: 10.9 fold
IC50 [1]: 0.53 nM
Fold-improvement over 4E4 Ab [2]: 0.5 fold
IC50 [2]: 0.93 nM
B22: iPS:454881 (bispecific antibody, human IgG1, kappa, lambda, N297G)
light 1: B1 light 1 with R26S, I31N, K32N, A33Y, A72T
heavy 1: B1 heavy 1 with E105R, S107F, H111G, K113H
light 2: B1 light 2 with W31R
heavy 2: not shown
